Data published in patent US20140086936.

Molecular target: hemagglutinin (HA0) of influenza A/Puerto Rico/8/34 (PR8) virus, P03452

B1: Recombinant purified human matriptase (amino acids 596-855) (protein)
chain: GSDEKDCDCGLRSFTRQARVVGGTDADEGEWPWQVSLHALGQGHICGASLISPNWLVSAAHCYIDDRGFRYSDPTQWTAFLGLHDQSQRSAPGVQERRLKRIISHPFFNDFTFDYDIALLELEKPAEYSSMVRPICLPDASHVFPAGKAIWVTGWGHTQYGGTGALILQKGEIRVINQTTCENLLPQQITPRMMCVGFLSGGVDSCQGDSGGPLSSVEADGRIFQAGVVSWGDGCAQRNKPGVYTRLPLFRDWIKENTGV
- cleavage of HA0 to HA1, Western blot: matriptase was able to cleave viral HA
